Data on 2 molecules can be found in PMC8166883 (Cellular and Molecular Immunology, 2020).

The Kd is the concentration at which binding is half-saturated.

Test [1] addresses T1, histidine-tagged human semaphorin 3A fused with alkaline phosphatase (hSema3A-his-AP) (Homo sapiens, UniProt Q14563).
T1 construct: human semaphorin 3A; The expressing cells were a gift from Dr. Yoshio Goshima; the construct is not described further; source: HEK293 cells, stably expressed, purified (HisTrap Excel column, gel filtration)
Description: ELISA; antigen immobilised on MaxiSorp 384-well plates (62.5 ng/well), blocked with 1% BSA in PBS; DT40 culture supernatants 1 h at room temperature; detected by anti-hIgG-Fc HRP. The settings on record: one partner purified. A general note: An ELISA detects its analyte on a solid surface through an enzyme-linked reagent.

Test [2] deals with T2, FLAG-tagged human vascular endothelial growth factor-A (FLAG-hVEGF-A) (Homo sapiens, UniProt P15692-4).
T2 construct: human vascular endothelial growth factor-A; The cell-based assays used bought recombinant hVEGF165 (Pepro Tech), not this construct
In words: SPR; Biacore T200; mAb held by anti-hIgG capture antibodies amine-coupled to a CM5 chip; purified antigen serially diluted in HBS-EP+ (100, 33.3, 11.1, 3.7, 1.23, 0.412 nM) injected 240 s at 30 µL/min, 300 s dissociation; 1:1 Langmuir binding model with mass transfer; KD calculated as kd/ka. The settings on record: both partners purified.

T1 sequence (Q14563 21-771): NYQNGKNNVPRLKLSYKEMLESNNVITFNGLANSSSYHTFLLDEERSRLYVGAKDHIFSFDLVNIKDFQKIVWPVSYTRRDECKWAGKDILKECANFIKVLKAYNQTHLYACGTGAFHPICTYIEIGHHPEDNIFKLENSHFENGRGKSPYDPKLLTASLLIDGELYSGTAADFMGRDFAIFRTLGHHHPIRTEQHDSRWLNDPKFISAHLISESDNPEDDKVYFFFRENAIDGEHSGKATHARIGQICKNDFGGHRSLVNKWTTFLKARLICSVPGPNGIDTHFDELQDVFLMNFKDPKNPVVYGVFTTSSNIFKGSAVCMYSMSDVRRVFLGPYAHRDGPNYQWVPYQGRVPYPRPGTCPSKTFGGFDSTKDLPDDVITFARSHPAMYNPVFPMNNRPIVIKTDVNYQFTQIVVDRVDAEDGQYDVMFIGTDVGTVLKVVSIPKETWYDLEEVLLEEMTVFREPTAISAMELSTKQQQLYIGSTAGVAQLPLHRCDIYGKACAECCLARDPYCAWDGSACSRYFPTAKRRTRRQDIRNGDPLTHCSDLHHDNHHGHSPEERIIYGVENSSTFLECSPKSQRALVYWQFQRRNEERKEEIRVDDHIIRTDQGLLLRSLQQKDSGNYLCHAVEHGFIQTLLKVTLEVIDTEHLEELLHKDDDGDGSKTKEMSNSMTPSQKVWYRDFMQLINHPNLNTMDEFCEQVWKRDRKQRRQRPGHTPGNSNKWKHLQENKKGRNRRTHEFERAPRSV

B1: anti-hSema3A clones from the L30H45(fff) single clone-derived library (three clones with identical HC and LC sequences) (antibody, V domains shown)
VH: EVQLLESGGGLVQPGGSLRLSCAASGFTFSSYWMSNEMSWVRQAPGKGLEWVSSISGGSTYYADSVKGRFTISRDNSKNTLYLQMNSLRAEDTAVYYCAKGYSGYDYYFDYWGQGTLVTVSS
VL: QSALTQPASVSGSPGQSITISCTGTSSDVGGYNYVSWYQQNPGKAPKLMIYDVSNRPSGISNRFSGSKSGNTASLTISGLQADDEADYYCTSYTNDSNSQVFGGGTKLTVL
notes: human IgG1 heavy chain constant region (CH1, hinge, CH2, CH3); human Igλ constant region (hCλ) amplified from Ramos cell cDNA; Full-length human IgG1, λ; source: DT40 L30H45(fff) cells treated with TSA for 86 days, selected on hSema3A-his-AP beads, limiting dilution cloning
For B1, the binding result in test [1] was “binds”.

B2: anti-hVEGF-A clone A033AM-19 (affinity-matured from A033) (antibody, V domains shown)
VH: EVELVQSGAEVKKPGSSVKVSCKASGGTFSDYSISWVRQAPGQGLEWMGGIIPIFGTPNYAQKFQGRVTITADESTSTAYMELSSLRSEDTAVYYCADGGAYCGGDCYSGYYYYGMDVWGQGTTVTVSS
VL: QSALTQPASVSGSPGQSITISCTGTSSDVGGYNLVSWYQQHPGKAPKLMIYQDNNKRPSGVSNRFSGSKSGNTASLTISGLQAEDEADYYCSYTNDSNSQVFGGGTKLTVL
notes: human IgG1 heavy chain constant region (CH1, hinge, CH2, CH3); as the light chain of m7 (identical LC); human Igλ constant region (hCλ) amplified from Ramos cell cDNA; Full-length human IgG1, λ; source: DT40 cells (subclone of A033 sorted after culture without TSA), secreted human IgG, purified
Take B2: the Kd in test [2] is 0.0491 nM.
